We go through 1 molecule from publication PMC3139607.

For assay [1], the target named is two-domain (2D) soluble CD4 (amino acids 1 to 183) (human). Put plainly: ELISA; hybridoma culture supernatants diluted 1:1 on solid-phase 2D-CD4, gp120 (Ba-L) or the 2D-CD4/gp120 (Ba-L) complex; values qualitative.
Assay [2] deals with 2D-CD4-gp120 (Ba-L) complex (human | HIV-1 isolate Ba-L). The description is as above.

B1: MAb DB81 (antibody, V domains shown)
VH: EVQLQQSGPELVKPGASVKISCKASGYSFTDYTMLWVKQSHGKSLEWIGNINPYYDTTTYNLNFKGKATMTVDKSSSTAYMQLNSLTSEDSAVYYCAREGDYGHPFAYWGQGTLVTVSS
VL: DIVMTQSHKFMSTSVGDRVSITCKASQDVSTTVAWYQQKPGQSPKLLIYSASYRYTGVPDRFTGSGSGTDFTFTISSVQAEDLAVYYCQQHYSTPPTFGGGTKLEIR
Molecule B1 registered a Binding to CD4 (ELISA reading) in assay [1] of 1.23. The Binding to CD4-gp120 (ELISA reading) in assay [2] was found to be 2.
